± gives the uncertainty stated by the source.
Assay: abundance fitness (aPCA) (normalised: wild type 0, dead -1); higher = more abundant; growth selection in yeast, the domain comes from the species named
Settings: Homo sapiens

| Substance | abundance fitness |
| --- | --- |
| Transcription factor SOX-4 D102T, Q06945 | -0.149 ± 0.05 |
| Transcription factor SOX-4 E79V, Q06945 | -0.476 ± 0.13 |
| Transcription factor SOX-4 S81N, Q06945 | 0.007 ± 0.056 |

Same assay, conditions: Saccharomyces cerevisiae (strain ATCC 204508 / S288c)

| Substance | abundance fitness |
| --- | --- |
| E3 ubiquitin-protein ligase RSP5 T326F, P39940 | -0.02 ± 0.09 |
| E3 ubiquitin-protein ligase RSP5 R363V, P39940 | -0.437 ± 0.046 |
| E3 ubiquitin-protein ligase RSP5 L330V, P39940 | -0.019 ± 0.041 |
| E3 ubiquitin-protein ligase RSP5 T327R, P39940 | -0.067 ± 0.044 |
| E3 ubiquitin-protein ligase RSP5 Q339C, P39940 | -0.092 ± 0.07 |
| E3 ubiquitin-protein ligase RSP5 R363F, P39940 | -0.805 ± 0.11 |
| E3 ubiquitin-protein ligase RSP5 W359L, P39940 | -0.203 ± 0.066 |
| E3 ubiquitin-protein ligase RSP5 L333A, P39940 | -0.648 ± 0.05 |
| E3 ubiquitin-protein ligase RSP5 G336W, P39940 | -0.558 ± 0.054 |
| E3 ubiquitin-protein ligase RSP5 G329M, P39940 | 0.061 ± 0.098 |
| E3 ubiquitin-protein ligase RSP5 A347F, P39940 | -0.067 ± 0.19 |
| E3 ubiquitin-protein ligase RSP5 R346L, P39940 | 0.078 ± 0.05 |
| E3 ubiquitin-protein ligase RSP5 G325Q, P39940 | -0.151 ± 0.1 |
| E3 ubiquitin-protein ligase RSP5 E332P, P39940 | -0.128 ± 0.057 |
| E3 ubiquitin-protein ligase RSP5 P362F, P39940 | -1.41 ± 0.47 |
| E3 ubiquitin-protein ligase RSP5 D361T, P39940 | -0.562 ± 0.065 |
| E3 ubiquitin-protein ligase RSP5 P334Q, P39940 | -0.68 ± 0.056 |
| E3 ubiquitin-protein ligase RSP5 P362E, P39940 | -0.723 ± 0.076 |
| E3 ubiquitin-protein ligase RSP5 D351C, P39940 | -0.256 ± 0.067 |
| E3 ubiquitin-protein ligase RSP5 G331R, P39940 | -0.17 ± 0.041 |
| E3 ubiquitin-protein ligase RSP5 W337A, P39940 | -0.649 ± 0.06 |
| E3 ubiquitin-protein ligase RSP5 R346S, P39940 | 0.15 ± 0.05 |
| E3 ubiquitin-protein ligase RSP5 P343Y, P39940 | -0.402 ± 0.35 |
| E3 ubiquitin-protein ligase RSP5 D361N, P39940 | -0.304 ± 0.085 |
| E3 ubiquitin-protein ligase RSP5 D361V, P39940 | -0.607 ± 0.043 |

| Substance | abundance fitness |
| --- | --- |
| E3 ubiquitin-protein ligase RSP5 R364Q, P39940 | 0.066 ± 0.054 |
| E3 ubiquitin-protein ligase RSP5 L333K, P39940 | -0.6 ± 0.09 |
| E3 ubiquitin-protein ligase RSP5 T354K, P39940 | -0.147 ± 0.082 |
| E3 ubiquitin-protein ligase RSP5 T358N, P39940 | -0.767 ± 0.12 |
| E3 ubiquitin-protein ligase RSP5 A347Y, P39940 | -0.128 ± 0.063 |
| E3 ubiquitin-protein ligase RSP5 F341G, P39940 | -0.284 ± 0.044 |
| E3 ubiquitin-protein ligase RSP5 S335H, P39940 | -0.079 ± 0.066 |
| E3 ubiquitin-protein ligase RSP5 W337G, P39940 | -0.503 ± 0.051 |
| E3 ubiquitin-protein ligase RSP5 P362Q, P39940 | -0.709 ± 0.093 |
| E3 ubiquitin-protein ligase RSP5 R363I, P39940 | -0.473 ± 0.061 |
| E3 ubiquitin-protein ligase RSP5 T358Q, P39940 | -0.326 ± 0.057 |
| E3 ubiquitin-protein ligase RSP5 V360M, P39940 | 0.022 ± 0.062 |
| E3 ubiquitin-protein ligase RSP5 Q339T, P39940 | -0.11 ± 0.065 |
| E3 ubiquitin-protein ligase RSP5 P334T, P39940 | -0.857 ± 0.069 |
| E3 ubiquitin-protein ligase RSP5 T342H, P39940 | -0.455 ± 0.3 |
| E3 ubiquitin-protein ligase RSP5 S328C, P39940 | 0.054 ± 0.079 |
| E3 ubiquitin-protein ligase RSP5 F349R, P39940 | -0.937 ± 0.051 |
| E3 ubiquitin-protein ligase RSP5 Q366L, P39940 | 0.24 ± 0.11 |
| E3 ubiquitin-protein ligase RSP5 W359N, P39940 | -0.198 ± 0.091 |
| E3 ubiquitin-protein ligase RSP5 W359K, P39940 | -0.446 ± 0.11 |
| E3 ubiquitin-protein ligase RSP5 F341S, P39940 | -0.066 ± 0.06 |
| E3 ubiquitin-protein ligase RSP5 T326C, P39940 | -0.033 ± 0.07 |
| E3 ubiquitin-protein ligase RSP5 G336D, P39940 | -0.368 ± 0.07 |
| E3 ubiquitin-protein ligase RSP5 P343G, P39940 | -0.018 ± 0.05 |
| E3 ubiquitin-protein ligase RSP5 V350M, P39940 | 0.109 ± 0.085 |

| Substance | abundance fitness |
| --- | --- |
| E3 ubiquitin-protein ligase RSP5 F341W, P39940 | -0.064 ± 0.056 |
| E3 ubiquitin-protein ligase RSP5 A347M, P39940 | 0.089 ± 0.064 |
| E3 ubiquitin-protein ligase RSP5 L333M, P39940 | -0.037 ± 0.097 |
| E3 ubiquitin-protein ligase RSP5 V350W, P39940 | -0.359 ± 0.057 |
| E3 ubiquitin-protein ligase RSP5 T356P, P39940 | -0.96 ± 0.069 |
| E3 ubiquitin-protein ligase RSP5 A347R, P39940 | -0.031 ± 0.045 |
| E3 ubiquitin-protein ligase RSP5 E332M, P39940 | -0.093 ± 0.069 |
| E3 ubiquitin-protein ligase RSP5 H352T, P39940 | -0.197 ± 0.055 |
| E3 ubiquitin-protein ligase RSP5 Y348D, P39940 | -0.879 ± 0.091 |
| E3 ubiquitin-protein ligase RSP5 Q339A, P39940 | -0.143 ± 0.047 |
| E3 ubiquitin-protein ligase RSP5 R364H, P39940 | 0.163 ± 0.092 |
| E3 ubiquitin-protein ligase RSP5 H352E, P39940 | -0.296 ± 0.056 |
| E3 ubiquitin-protein ligase RSP5 R340S, P39940 | -0.039 ± 0.057 |
| E3 ubiquitin-protein ligase RSP5 T357D, P39940 | -0.711 ± 0.06 |
| E3 ubiquitin-protein ligase RSP5 H352D, P39940 | -0.325 ± 0.099 |
| E3 ubiquitin-protein ligase RSP5 E344D, P39940 | 0.149 ± 0.087 |
| E3 ubiquitin-protein ligase RSP5 V360I, P39940 | 0.186 ± 0.1 |
| E3 ubiquitin-protein ligase RSP5 W359S, P39940 | -0.249 ± 0.049 |
| E3 ubiquitin-protein ligase RSP5 L330G, P39940 | -0.087 ± 0.043 |
| E3 ubiquitin-protein ligase RSP5 R355K, P39940 | 0.033 ± 0.066 |
| E3 ubiquitin-protein ligase RSP5 V360A, P39940 | -0.161 ± 0.046 |
| E3 ubiquitin-protein ligase RSP5 G336V, P39940 | -1.11 ± 0.061 |
| E3 ubiquitin-protein ligase RSP5 Q366V, P39940 | 0.023 ± 0.11 |
| E3 ubiquitin-protein ligase RSP5 Q339F, P39940 | -0.26 ± 0.074 |
| E3 ubiquitin-protein ligase RSP5 G345R, P39940 | -0.219 ± 0.047 |

| Substance | abundance fitness |
| --- | --- |
| E3 ubiquitin-protein ligase RSP5 P343D, P39940 | 0.099 ± 0.064 |
| E3 ubiquitin-protein ligase RSP5 N353I, P39940 | -0.083 ± 0.078 |
| E3 ubiquitin-protein ligase RSP5 S335Y, P39940 | -0.33 ± 0.087 |
| E3 ubiquitin-protein ligase RSP5 G331V, P39940 | -0.083 ± 0.047 |
| E3 ubiquitin-protein ligase RSP5 G345Q, P39940 | -0.202 ± 0.08 |
| E3 ubiquitin-protein ligase RSP5 Q339V, P39940 | -0.076 ± 0.045 |
| E3 ubiquitin-protein ligase RSP5 R363L, P39940 | -0.377 ± 0.047 |
| E3 ubiquitin-protein ligase RSP5 G331A, P39940 | -0.034 ± 0.042 |
| E3 ubiquitin-protein ligase RSP5 G324V, P39940 | 0.005 ± 0.11 |
| E3 ubiquitin-protein ligase RSP5 L330T, P39940 | -0.044 ± 0.062 |
| E3 ubiquitin-protein ligase RSP5 T326W, P39940 | -0.207 ± 0.08 |
| E3 ubiquitin-protein ligase RSP5 G324P, P39940 | -0.178 ± 0.1 |
| E3 ubiquitin-protein ligase RSP5 F349I, P39940 | -0.814 ± 0.1 |
| E3 ubiquitin-protein ligase RSP5 T358E, P39940 | -0.761 ± 0.051 |
| E3 ubiquitin-protein ligase RSP5 H352Y, P39940 | -0.176 ± 0.12 |
| E3 ubiquitin-protein ligase RSP5 D361S, P39940 | -0.409 ± 0.054 |
| E3 ubiquitin-protein ligase RSP5 S328P, P39940 | -0.025 ± 0.064 |
| E3 ubiquitin-protein ligase RSP5 R355C, P39940 | -0.17 ± 0.052 |
| E3 ubiquitin-protein ligase RSP5 R346N, P39940 | 0.185 ± 0.085 |
| E3 ubiquitin-protein ligase RSP5 D351Q, P39940 | -0.612 ± 0.21 |
| E3 ubiquitin-protein ligase RSP5 G331D, P39940 | 0.059 ± 0.087 |
| E3 ubiquitin-protein ligase RSP5 P334L, P39940 | -0.837 ± 0.072 |
| E3 ubiquitin-protein ligase RSP5 F341A, P39940 | -0.072 ± 0.049 |
| E3 ubiquitin-protein ligase RSP5 G345T, P39940 | -0.665 ± 0.069 |
| E3 ubiquitin-protein ligase RSP5 V360H, P39940 | 0.043 ± 0.059 |

Source: the Human Domainome abundance scans (Beltran et al. 2025)
